The values that follow come from PMC3632608.

For test [1], the target named is A30P mutant α-synuclein (human) (UniProt P37840).
In test [2] the target is A53T mutant α-synuclein (human) (UniProt P37840).
The target of test [3] is Recombinant human α-synuclein (human) (UniProt P37840).
Test [4] addresses Recombinant human β-synuclein (human) (UniProt Q16143). Description: SEC; Superose 12, 50 mM Tris/HCl pH 7.4, 100 mM NaCl, 1 mM EDTA, 5% glycerol, 0.5 ml/min; 20-50 µg per run; in vitro aged α-synuclein, β-synuclein or co-incubated mixtures; mass estimated from gel filtration standards.

For the substance “Recombinant human β-synuclein (from UniProt Q16143 1-134) (natural protein)”, in test [1], the reduction of isoaspartate formed in A30P α-synuclein on co-incubation with approximately equimolar β-synuclein, 0-20 days of in vitro ageing (methanol diffusion assay); value after 20 days is 84.3%. For the same substance, the reduction of isoaspartate formed in A53T α-synuclein on co-incubation with approximately equimolar β-synuclein, 0-20 days of in vitro ageing (methanol diffusion assay); value after 20 days in test [2] turned out to be 47.9%. Besides, the reduction of isoaspartate formed in native α-synuclein on co-incubation with approximately equimolar β-synuclein, 0-20 days of in vitro ageing (methanol diffusion assay); value after 20 days in test [3] is 72.2%. The stoichiometry N in test [4] is 4.
